In US7166691B2, “Saposin C and receptors as targets for treatment of benign and malignant disorders” (priority 2002, dated 2007):

Columns and labels:
[1] = test system: prosaposin; settings: LNCaP and normal prostate stromal cells; 0.1, 1, 10 nM; 24 h
[2] = test system: enzymes in the MAPK signaling transduction pathway (MEK1/2, p42/44, p90RSK); assay: Activation of MAPK signaling transduction pathway (phospho-specific Western); assay type: cell-based, human; settings: PC-3, DU-145, LNCaP
Method: (§1) Cells were grown to 80% confluency by incubating in their respective serum-free basal media for 18 h. For each cell line, tissue culture plates were pre-treated with a specific MEK1/2 inhibitor (U0126, Cat.# 9903, Cell Signaling Technology, Beverly, Mass.) at 10 μM for 1.5 h. Saposin C and TX14A were added at the following concentrations: 0.1, 1.0, and 10 nM. The cells were then incubated at 37° C. for 5 min, washed, and lysed on ice in RIPA buffer supplemented with protease inhibitors and 1 mM sodium orthovandate, as described in S. Koochekpour et al., 1999. Clarified cell lysates were subjected to Western analysis using phospho-specific antibodies against three enzymes in the MAPK Pathway: MEK1/2 (Ser217/22; Cat.# 9121; Cell Signaling Technology, Beverly, Mass.); p90RSK (p90^rsk, Ser380, Cat# 9341, Cell Signaling Technology); and p42/44 MAP Kinases (p44^MAPK, p42^MAPK; Thr202/Tyr204, Cat# 9102; Cell Signaling Technology). Primary antibodies against p42/44 MAP kinase (Cell Signaling Technology) or against tubulin (Cat# 12463, Santa Cruz Biotechnology, Santa Cruz, Calif.) were used as controls. To quantify the difference between the control and the various treatments, the autoradiograms were read on a densitometer, an Alpha Imager 2000 (Alpha Innotech Corp., San Leandro, Calif.).

[3] = test system: normal prostate stromal cells; settings: NaSe 10 μM, 48 h
[4] = test system: MEK1/2; assay: Phospho-specific Western, MEK1/2; assay type: cell-based, human; settings: normal prostate epithelial cells; 0.1, 1.0, 10 nM
Method: as §1

[5] = test system: normal primary prostate epithelial cells; assay: Transwell cell migration assay; assay type: cell-based, human; settings: presence or absence of saposin C
Method: (§2) To test the effect of saposin C on prostatic cell migration and invasion, cell migration and invasion assays were performed using 24-well transwell units with 8-μm polycarbonate filters (Costar, purchased from Becton Dickinson, Bedford, Mass.), as described in S. Koochekpour et al., “Met and […] expression in human glioma,” Cancer Res., vol. 57, pp. 5391–5398 (1997). For invasion assays, transwell filters were coated with 20 μg GFR-Matrigel matrix (Becton Dickenson) in 100 μl of basal medium, and left to air dry overnight. To the lower compartment of each transwell unit, was added 400 μl of basal media supplemented with 0.5% FBS and 0.1% BSA. Saposin C was then added to the lower compartment in the following concentrations: 0 (control), 0.1 nM, 1 nM, and 10 nM.
(§3) Cultured cells were freshly harvested by trypsinization and counted. Approximately 5000 cells were resuspended in 100 μl of serum-free medium With 0.1% BSA, and were placed in the upper compartment of the transwell unit. After 16 h of incubation at 37° C., cells in both the upper and lower compartments were fixed in methanol and stained with Diff-Quick (Dade, Aguada, Puerto Rico). Non-migratory cells in the upper surface of the filter were removed by wiping with a cotton swab. Cells under the filter were counted. The results of cell migration are shown in FIG. 4A; and of cell invasion in FIG. 4B. Each bar represents the mean +/−SEM of three duplicate experiments, and samples from each experiment were counted at least three times.

[6] = test system: DU-145; assay: Transwell cell migration assay; assay type: cell-based, human; settings: saposin C 0.1-10 nM, 16 h
Method: as §2, §3

[7] = test system: PC-3; assay: Transwell cell migration assay; assay type: cell-based, human; settings: saposin C 0.1-10 nM in lower compartment, 16 h
Method: as §2, §3

[8] = test system: LNCaP; assay: Transwell cell migration assay; assay type: cell-based, human; settings: saposin C 0.1-10 nM, 16 h
Method: as §2, §3

[9] = test system: breast cancer cells (MCF-7); assay: Transwell Matrigel cell invasion assay; assay type: cell-based, human; settings: saposin C 0.1-10 nM
Method: as §2, §3
(§4) To test the effect of saposin C on migration and invasion of non-prostatic cancer cells, assays using human breast cancer cell line (MCF-7), colon cancer cell line (LoVo), and lung cancer cell line (H1299) were performed in 24-well transwell units with polycarbonate filters as described above in Example 5.

[10] = test system: colon cancer cells (LoVo); assay: Transwell Matrigel cell invasion assay; assay type: cell-based, human; settings: saposin C 0.1-10 nM
Method: as §2, §3, §4

[11] = test system: lung cancer cells (H1299); assay: Transwell Matrigel cell invasion assay; assay type: cell-based, human; settings: saposin C 0.1-10 nM
Method: as §2, §3, §4

[12] = test system: PC-3 cells; assay: Protection from NaSe-induced cell death (trypan blue exclusion); assay type: cell-based, human; settings: NaSe 10 μM, 48 h
[13] = test system: p90RSK; assay: Phospho-specific Western, p90RSK; assay type: cell-based, human
Method: as §1

[14] = test system: pro-cathepsin D and cathepsin D; assay: Western blot of culture supernatant for cathepsin D expression; assay type: cell-based, human; settings: LNCaP and normal prostate stromal cells; 0.1, 1, 10 nM; 24 h; compared to control (0 nM)
[15] = test system: p42/44 MAP Kinases; assay: Phospho-specific Western, p42/44 MAP kinases; assay type: cell-based, human
Method: as §1

[16] = test system: normal prostate epithelial cells; assay: Protection from NaSe-induced cell death (trypan blue exclusion); assay type: cell-based, human; settings: NaSe 10 μM, 48 h
[17] = test system: DU-145; assay: Transwell Matrigel cell invasion assay; assay type: cell-based, human; settings: saposin C 0.1-10 nM, 16 h
Method: as §2, §3

[18] = test system: PC-3; assay: Transwell Matrigel cell invasion assay; assay type: cell-based, human; settings: saposin C 0.1-10 nM, 16 h
Method: as §2, §3

[19] = test system: LNCaP; assay: Transwell Matrigel cell invasion assay; assay type: cell-based, human; settings: saposin C 0.1-10 nM, 16 h
Method: as §2, §3

[20] = test system: prostate cancer cells and normal prostate cells; assay: Protection from NaSe-induced cell death, cell lines overall; assay type: cell-based, human; settings: dose dependent; NaSe 10 μM; 48 h
[21] = test system: PSA; assay: Western blot of supernatant for PSA expression in LNCaP cells; assay type: cell-based, human; settings: 24 h, at concentrations as low as 0.1 nM
Method: To investigate the effect of saposin C on the expression of PSA in LNCaP cells, cells were cultured in the preferred media up to 80% confluency, and then washed twice with PBS. The cells were incubated in serum-free medium supplemented with either testosterone (T), dihydrotestosterone (DHT), saposin C or TX14A at the following concentrations: 0, 0.1, 1 or 10 nM. […] The supernatants were concentrated 5-fold using Centriprep-3 concentrator (Amikon, Beverley, Mass.) and stored frozen in −70° C. until use. A Western blot analysis was performed (as in Examples 2 and 6) using commercially available anti-PSA (Santa Cruz Biotechnology, Santa Cruz, Calif.).

[22] = test system: soluble uPA receptor (uPAR); assay: Western blot of supernatant for soluble uPAR; assay type: cell-based, human; settings: normal prostate stromal cells, PC-3 and DU-145; 0.1, 1.0, 10 nM; 24 h
Method: (§5) To investigate the effect of saposin C on expression of both urokinase-type plasminogen activator (uPA) and the soluble uPA receptor (uPAR), normal prostate stromal cells and prostatic cancer cells (PC-3, DU-145, LNCaP) were cultured in media as described in Example 1. The cells were cultured in the preferred media up to 80% confluency, then washed twice with PBS, and incubated for 24 h at 37° C. in serum-free medium supplemented with either 0, 0.1, 1.0 or 10 nM saposin C. At the end of the incubation period, the cell-conditioned medium (Supernatant) was collected. The Supernatants were concentrated 5-fold using Centriprep-3 concentrator (Amikon, Beverley, Mass.), and stored frozen in −70° C. until use.
(§6) A Western blot analysis was performed (as in Examples 2 and 6) using commercially available anti-uPA and anti-uPAR antibodies (Cat# 389 and Cat# 399R, respectively; American Diagnostica Inc., Greenwich, Conn.).

[23] = test system: breast cancer cells (MCF-7); assay: Transwell cell migration assay; assay type: cell-based, human; settings: saposin C 0.1-10 nM
Method: as §2, §3, §4

[24] = test system: colon cancer cells (LoVo); assay: Transwell cell migration assay; assay type: cell-based, human; settings: saposin C 0.1-10 nM
Method: as §2, §3, §4

[25] = test system: lung cancer cells (H1299); assay: Transwell cell migration assay; assay type: cell-based, human; settings: saposin C 0.1-10 nM
Method: as §2, §3, §4

[26] = test system: non-prostatic cancer cells (MCF-7, LoVo, H1299); assay: Transwell migration and invasion, all cells tested; assay type: cell-based, human
Method: as §2
as §3, with “Non-migratory cells in the upper surface of the filter were removed by wiping with a cotton swab.” left out, “The results of cell migration are shown in FIG. 4A; and of cell invasion in FIG. 4B.” left out, “times. […]” for “times.”

[27] = test system: prostate (PC-3, DU-145, LNCaP), breast (MCF-7), lung (H1299), and colon (LoVo) cancer cells; assay: Cytotoxicity / cell number, all tested cancer cell lines incl. competitive inhibition; assay type: cell-based, human
Method: The conjugate of saporin and TX14A was made by special order by Advanced Targeting Systems with a 1:1 molar ratio between the peptide and saporin. Blank-SAP, a non-targeted saporin conjugate, was purchased as a control (ATS, Catalogue# IT-21). Exponentially growing cells were trypsinized and cultured in their complete culture media (1000/well in 96-well plates) as described in Example 1. After 1 day of incubation at 37° C., the culture media were supplemented with either TX14A, saporin, TX14A-saporin (conjugate), Saposin C, TX14A-saporin plus TX14A, or TX14A-Saporin plus Saposin C at the following concentrations: 0, 0.1, 1, 10, 100, 1000 nM. Three days after treatment, cell death was monitored with a Promega (Madison, Wis.) cell titer cytotoxicity kit. Cell counts were normalized to the media controls.

[28] = test system: urokinase-type plasminogen activator (uPA); assay: Western blot of supernatant for uPA; assay type: cell-based, human; settings: normal prostate stromal cells, PC-3 and DU-145; 0.1, 1.0, 10 nM; 24 h
Method: as §5, §6

[29] = test system: normal prostate epithelial cells; assay: Cell proliferation (living cells, trypan blue exclusion); assay type: cell-based, human; settings: 0.1, 1.0, 10 nM, 2 days
Method: To test the effects of saposin C and TX14A on cell proliferation, various cells were cultured as described in Example 1, incubated in only fresh media, or in media supplemented with saposin C or with TX14A at concentrations of 0.1, 1.0, and 10 nM. After incubation for 2 days, the number of living cells was determined by trypan blue exclusion method, as described above in Example 3. The results are shown in FIG. 3, in which each point represents the mean +/−SEM of three duplicate experiments.

[30] = test system: DU-145 cells; assay: Protection from NaSe-induced cell death (trypan blue exclusion); assay type: cell-based, human; settings: NaSe 10 μM, 48 h
[31] = normal prostate epithelial cells, decreased at 0.1 nM, increased at 1.0 nM, decreased at 10 nM

## C[C@]12CCC(=O)C[C@@H]1CC[C@@H]1[C@@H]2CC[C@]2(C)[C@@H](O)CC[C@@H]12 [DHT, dihydrotestosterone]
[1]
  expression of prosaposin: stimulated the expression

## N#CC(=C(/N)Sc1ccccc1N)/C(C#N)=C(\N)Sc1ccccc1N [U0126, reference compound]
[2]; U0126 10 μM pre-treatment 1.5 h, stromal
  inhibition of saposin C / TX14A activation of MAPK pathway enzymes: substantially inhibited

## C[C@]12CC[C@H]3[C@@H](CCC4=CC(=O)CC[C@@]43C)[C@@H]1CC[C@@H]2O [T, testosterone]
[1]
  expression of prosaposin: stimulated the expression

## O=[Se]([O-])[O-].[Na+].[Na+] [NaSe, sodium selenium]
[3]
  toxic effect of NaSe: resistant

B1: saposin C: Human saposin C, about 8–13 kDa protein proteolytically generated from prosaposin; obtained from Professor K. Sandoff (protein, UniProt P07602 311-390, looked up)
Saposin-C: SDVYCEVCEFLVKEVTKLIDNNKTEKEILDAFDKMCSKLPKSLSEECQEVVDTYGSSILSILLEEVSPELVCSMLHLCSG
modifications: Saposin-C
notes: Human saposin C, about 8–13 kDa protein proteolytically generated from prosaposin; obtained from Professor K. Sandoff
[4]
  expression of MEK1/2 (phospho-MEK1/2 Western): dose-dependent increase
[5]
  migration through the filter: neither migrated through the filter
[6]
  stimulation of migration: 140%
[7]
  stimulation of migration: more than 300%
[8]
  stimulation of migration: 50%
[9]
  increase of invasion: 22–36%
[10]
  increase of invasion: 16–37%
[11]
  increase of invasion: 19–195%
[12]
  protective effect, difference in the percent cell death with and without saposin C: 55%
[13]; [31]
  pattern of p90RSK phosphorylation activity: biphasic pattern
[13]; normal prostate stromal cells
  pattern of p90RSK activity: biphasic pattern
[14]
  expression of pro-cathepsin D (50 kDa band) and active mature cathepsin D (36 kDa band): stimulate expression
[15]; [31]
  pattern of p42/44 phosphorylation activity: biphasic pattern
[15]; normal prostate stromal cells, densitometry
  increase in p42/44 phosphorylation as compared to the control: 15 fold
[16]
  protection from cell death: Neither Saposin C nor TX14A protected
[17]
  stimulation of invasion: 70%
[18]
  stimulation of invasion: 100%
[19]
  stimulation of invasion: 48%
[20]
  degree of cell death in the presence of NaSe: decreased the degree of cell death
[21]
  extracellular level of PSA: significantly increased
[22]
  extracellular level of uPAR: increased
[23]
  increase of migration: 12–59%
[24]
  increase of migration: 22–59%
[25]
  increase of migration: 44–460%
[2]; normal prostate stromal cells, nanomolar concentrations, 5 min
  activation of the enzymes in the MAPK signaling transduction pathway: activated
[26]
  concentration at which the highest migration and invasion was seen: 1 nM
[27]; 0.1-1000 nM, three days, much greater effect in PC-3 and DU-145
  cell proliferation of all cancer cell lines: increased
[27]; equimolar mixture with TX14A-saporin, simultaneous treatment
  effect on TX14A-saporin cytotoxicity in competitive inhibition assays: inhibited in a dose dependent manner
[28]
  extracellular level of uPA: increased
[29]
  effect on growth: did not show any effect
[30]
  protective effect, difference in the percent cell death with and without saposin C: 50%
